This note sets out measurements from article PMC9908020, “Structural basis of the transcription termination factor Rho engagement with transcribing RNA polymerase from Thermus thermophilus” (Science Advances, 2023).

The chains are these.
B1: Thermus thermophilus RNA polymerase ω subunit (natural protein)
chain: MAEPGIDKLFGMVDSKYRLTVVVAKRAQQLLRHGFKNTVLEPEERPKMQTLEGLFDDPNAVTWAMKELLTGRLVFGENLVPEDRLQKEMERLYPVEREE
notes: RNA polymerase ω subunit, Thermus thermophilus; It stood in the assay as a subunit of the RNAP complex m2; It was cloned in pET-47b, which may add a cleavable N-terminal His tag (surmise); source: E. coli Rosetta2 (DE3), coexpressed and purified as part of RNAP
B2: Thermus thermophilus transcription termination factor Rho (enzyme)
chain: MRRKETLQETPLTYQELASKILPELHLLAQEAGIEGYKRMKKDQLIMALLERQTQGEGLRLVKGYLEISQDGYGFLTENLHNLESRVAIVSAGLIKQYALRAGDYVVGQARPPRENERYATLLKVEAVNNLDPEAAKNRPRFDELTPQFPDRQIRLETTPDELSTRVIDLLAPIGRGQRGLIVAPPKAGKTTLLKKIANAVLKNEPDIKVIVLLIDERPEEVTDFRESVQGAEVIASTFDEPPQNHIRVAEFVHERAKRIVEEGGHVMILLDSITRLARANNLVTPPTGRTLSGGLDSAALYFPKRFLGAARNIRGGGSLTILATALVETGSRMDDVIFEEFKGTGNMELHLSRRLEERRIFPAIDILKSGTRREELLLGEEVTHKMWLLRKVLADMDPAEAMEMLLARLARTKNNKEFLASLAAR
notes: Transcription termination factor Rho, Thermus thermophilus; the C terminus is printed as Arg426; the model leaves out 59 residues at the N terminus; Closed-ring homo-hexamer with ADP·BeF3 at the protomer interfaces; RNA is threaded through the central channel in the RNAP complexes; also called wild-type Rho; Rho hexamer; not shown: His tag, N-terminal, cleaved

In one data set the target is T1, T. thermophilus Rho (Thermus thermophilus, UniProt Q5SJE9).
T1 construct: full-length (C terminus Arg426), N-terminal His-tag cleaved by HRV 3C; pET-47b in E. coli Rosetta2 (DE3); closed-ring homohexamer; model lacks 59 N-terminal residues
Nature of the data set: Rho-dependent RNA release from immobilised RNAP elongation complex, urea-PAGE. In kind it is biochemical. The following applies: 1 mM ATP, 200 nM Rho, 10 mM MgCl2, pH 7.5, 65 °C; with T. thermophilus RNAP elongation complex.

In data set [1] the target is B2. Nature of the data set: cryo-EM structure; type 1 class: EC (RNAP with template DNA and 125-nt nascent RNA, gel filtered) mixed with Rho and 0.5 mM ADP·BeF3 in buffer C (20 mM Hepes-NaOH pH 7.5, 250 mM KCl, 5 mM MgCl2, 1% glycerol), cross-linked with 3 mM BS3; nascent RNA threaded into the Rho ring. The following applies: both partners purified.
Data set [2] deals with T2, Thermus thermophilus RNA polymerase β′ subunit (Thermus thermophilus, UniProt Q8RQE8 1-1524).
T2 construct: RNA polymerase β′ subunit, Thermus thermophilus; It stood in the assay as a subunit of the RNAP complex m2; source: E. coli Rosetta2 (DE3), coexpressed and purified as part of RNAP
Described as above. As to conditions: both partners purified.

The target in data set [3] is T3, Thermus thermophilus RNA polymerase β subunit (Thermus thermophilus, UniProt Q8RQE9 1-1119).
T3 construct: RNA polymerase β subunit, Thermus thermophilus; It stood in the assay as a subunit of the RNAP complex m2; source: E. coli Rosetta2 (DE3), coexpressed and purified as part of RNAP
The data set is described as above. The following applies: both partners purified.

Data set [4] deals with the molecule itself. The data set is described as follows: cryo-EM structure; Rho-only class of the same sample: closed-ring hexamer with ADP·BeF3 between the protomers; C6 symmetry.
Data set [5] deals with T4, Thermus thermophilus RNA polymerase lacking the β-flap tip helix (Thermus thermophilus, UniProt Q5SHR6 1-315; Q8RQE9 1-761; Q8RQE9 783-1119; Q8RQE8 1-1524; Q8RQE7 1-99).
T4 construct: RNA polymerase α subunit, Thermus thermophilus; RNA polymerase β subunit, Thermus thermophilus, up to the residue before the deleted β-flap tip helix (β762 to β782 removed); three alanine residues that fill the gap; RNA polymerase β subunit, Thermus thermophilus, from the residue after the deleted β-flap tip helix; RNA polymerase β′ subunit, Thermus thermophilus; RNA polymerase ω subunit, Thermus …
The data set is described as follows: cryo-EM structure; EC-Rho complex prepared with the β-flap tip-deleted RNAP; 2D class averages of ~3000 particles of the RNAP-Rho complex. The following applies: both partners purified.

`Nc1ncnc2c1ncn2[C@@H]1O[C@H](COP(=O)(O)OP(=O)(O)OP(=O)(O)O)[C@@H](O)[C@H]1O` [ATP]: on T. thermophilus Rho, the “Rho-dependent RNA release from immobilised RNAP elongation complex, urea-PAGE” value is “The RNA release is ATP dependent, as it did not occur in either the absence”.
Take B1: the binding result in data set [1] is “binds”.
By stoichiometry N is commonly meant a count of units in the complex or per binding partner. Turning to B2, the binding result in data set [2], in data set [3] and in data set [5] was “binds” throughout. Also, the “stoichiometry N” value in data set [4] is 6.
